One protein from PMC4300183, “Cloning and Characterization of a Weissella confusa Dextransucrase and Its Application in High Fibre Baking” (PLoS ONE, 2015) can be followed below.

Substrate in the data set: OC[C@H]1O[C@@](CO)(O[C@H]2O[C@H](CO)[C@@H](O)[C@H](O)[C@H]2O)[C@@H](O)[C@@H]1O
Nature of the data set: purified protein. It counts as biochemical, Weissella confusa. As to conditions: 20 mM Na-acetate pH 5.4, 2 mM CaCl2, 35 °C, sucrose 3-146 mM, labelled compound.

B1: WcE392-rDSR (Wc392-rDSR; recombinant WcE392-DSR dextransucrase) (Weissella confusa) (protein)
chain: DQLATQPAESAEVTQHETPTDSQAPDSVTSLSDTKETVQSSAASVDSSHVATSSASETTSSASETSTKTSSAASSVASSATMLSATSSASSSVDATITDGYHDEGGNWVYYRDGKKLTGRQLIDTFNVYFDEDGHQVKGDWRETDGKRAYYDGQEGRALTETQVVDGAVRGFDADGYEITNGFGQTSNQDTYYFDNDGNHVTGIQVIDGKTYNFDDQGRMLKGIATEVNGTMMYFDDQTGVATPTSDPKFNPELEPVPNQNAQHNAAHGTTPEDFDNMAGYLTADTWYRPNDILDNGETWRESTPTEYRPLIETWWPTKQTQADYVNYMNDALQVSTKTVSAADSEATLTAAADAIQAAIERQITVKQSTDWLRELMAAFVVTQPQWNKSSEDENDDHLQGGALSFENNPDTDANSDYRLMNRTPTNQTGERLYHIDDSLGGYELLLANDVDNSNPQVQAEQLNWLYYLMNFGSITANDPDANFDAIRVDAVDNVDADLLQLAAQYFRDAYGMATNDATSNQHLSILEDWSHNDPAYMNEHGNDQLTMDDYMHTQLIWSLTKSDAQRGKMDRFLDFYLTNRANDNTENEAQPSYSFVRAHDSEVQTVIAEIVTKLHPEAGNGLMPTQAQMDEAFKIYNADQKKAVKEYTHYNMPSAYAMLLTNKDVIPRVYYGDLYTDDGQYMATKSPYFDAIDAMLKARTKYVAGGQTMAVDKNDVLTSVRFGKGAMTASDAGTAETRTEGVGLIISNNHDLKMADSDQVVLHMGIAHANQAFRAVVMTTATGLAIYNDDNAPIRYTDANGDLIFTNADVYGVLNPQVSGFLAMWVPVGASATQDARTAASTEATTDGSAYHSNAALDSQVIFEGFSNFQAMPTTHDEYTNVVLAKHTDLLTDWSVTSVQLAPQYRSSTDGTFLDSIIQNGYAFTDRYDLGFGTPTKYGDDNDLRDVIKSLHANGIQVMADFVPDQLYALPGKELVQVTRTNNMGEPDKNSEIQHLMYVTSTRGGGEYQKQYGGEFLAKLRELYPDLFTTDQISTGKPIDDSVKIKEWSAKYLNGTAIQGRGAGYVLRDAGNNSYYRVTANTGNTNLPNQMLGKPVLTGFQKLADGYHFETLSGSAAKDAFIKDDNGELYYFDNNGVMATGEQKVRGGQYFFLPNGIALTDAFIETEDGHMRYYDKNGQLVVNQYVTDHQANAFRVDADGNVIRSQALTVDGNEQYFGSNGVQAKAQMVRDENGQAHYYAAGNGNMIKNQFILDTDGHWLYADQNGNLARGMTTLNQGTLYFDDQNHQVKDDFVYDADGVHYFNGTNGAEVKNDYAYHNGKWYYFDENGRMVTGLQTINGELRYFGADGAQLKGGQATNQKTNQTYVFDETNGSGKLVTI
notes: secreted by Lactococcus lactis NZ9800 (pNZ8037), Ni-NTA purified; predicted mature 1381 residues, 152 kDa (~160 kDa on SDS-PAGE); precursor printed as 1432 residues, but 4272 bp ORF implies 1423
For B1, the Km stood at 14.7 ± 2.3 mM, the Vmax was determined as 8.2 µmol/min/mg, the kcat was determined as 23.2 ± 1.1 s⁻¹ and the kcat/Km was determined as 1600 ± 300 M⁻¹ s⁻¹.

A word on the Km: it is the substrate concentration at which the rate is half of its maximum. In general, Vmax refers to the rate approached at saturating substrate. What is called kcat is the maximal rate divided by the concentration of active sites. Broadly, the kcat/Km is the second-order rate constant that governs catalysis at low substrate concentration.
